B1: PfPIMMS43 nanobody C12 (VHH)
VHH: EVQLVESGGGLVQAGGSLRLSCVDSGRTLSSYTMGWFRQAPGKEREFVAAVHYTGRRTYYADSVKGRFTISRDNDKNTVLLQMNSLKPEDTAVYYCAATEPPHSDYSTRLYNYHYWGQGTQVTVSS
notes: llama VHH; From an immune llama library (Eurogentec, pQ81 phagemid)
B2: PfPIMMS43 nanobody A5 (VHH)
VHH: EVQLVESGGGLVQAGVSLRLSCAASGRSLSNYAMGWFRQAPGKEREFVASITGSGSSTYYLNSVKGRFIISKDNAKNTVYLQMNSLKPEDTAVYYCAADSTGVARYTNRYDYWGQGTRVTVSS
notes: as for B1
B3: PfPIMMS43 nanobody E1 (VHH)
VHH: EVQLVESGGGLVQAGDSLRLSCAASDSTFSIYVMGWFRQAPGKEREFVAAITGSGGNTNYADSVKGRFTVSRDNAKHTVYLQMNSLKPEDAAVYYCAAGGSYSRSSLNYPYWGQGTQVTVSS
notes: as for B1
B4: PfPIMMS43 nanobody B11 (VHH)
VHH: EVQLVESGGGLVRAGDSLRLSCAASGTPLSSYTMGWFRQAPGKEREFVAASCWRGGSAYDADSIEGRFTISRDNAKNTVYLQMNSLKPEDTAVYYCAAVFAYICSSYGNRSPSRYGYWGQGTQVTVSS
notes: as for B1
B5: PfPIMMS43 nanobody E5 (VHH)
VHH: EVQLVESGGGLVQAGGSLRLSCAASGIHFNFKAMAWYRQAPGKQRELVAAIAPDDDTNYADSVKGRFTISRDNAKNTVYLQMNSLKPEDTAVYYCNTRIRIDYWGQGTQVTVSS
notes: llama VHH; From an immune llama library (Eurogentec, pQ81 phagemid); CDR2 of 7 and CDR3 of 8 amino acids
B6: PfPIMMS43 nanobody E2 (VHH)
VHH: EVQLVESGGGLVQAGGSLRLSCAASGLTFNGDSMGWFRQAPGKEREFVAAIRWNEVAYYADFVKGRFTISRDNAKNTVTLQMNSLKPEDTAVYYCGAGVRAYSYTTRLTSASEYTYWGQGTQVTVSS
notes: llama VHH; From an immune llama library (Eurogentec, pQ81 phagemid); CDR2 of 7 amino acids
B7: PfPIMMS43 nanobody H6 (VHH)
VHH: EVQLVESGGALVQAGNSLRLSCAASGRTFRSYVMGWFRQAPEKEREFVARIGWSAGSTYYTDSVKGRFTISRDDAKNTVYLQMNSLKPEDTAVYYCAAGRGYSDYDPSVGYGYWGQGTQVTVSS
notes: as for B1
B8: PfPIMMS43 nanobody G9 (VHH)
VHH: EVQLVESGGGLVQAGGSLRLSCAASEGTFSDYGMGWFRQAPGKEREFVASISWSGGRTGYRSSVKGRFTISRDNAKNTVYLQMNSLKPEDTAVYYCGAMSKYYRGDWSSRVTNYDDWGQGTQVTVSS
notes: llama VHH; From an immune llama library (Eurogentec, pQ81 phagemid); CDR3 of 20 amino acids
B9: PfPIMMS43 nanobody A3 (VHH)
VHH: EVQLVESGGGLVQPGGSLRLSCAASGSIFDKNGMGWFRQPPGRQRELVASITTDGNKHYGDDAKGRFTISRDIAKKTAYLQMNSLKPEDTAVYYCATTRGNYYSKSPPPIYDYYYWGQGTQVTVSS
notes: as for B6

Key:
[1] = target: T1, endogenous PfPIMMS43 produced by P. falciparum NF54 ookinetes (Plasmodium falciparum NF54 (entry 3D7, …, UniProt C6KT40)); assay: far-Western, overlay or dot blot; reduced lysates of P. falciparum NF54-infected An. coluzzii midguts (18 h post blood meal) on 10% SDS-PAGE, blotted to PVDF, probed with nanobody, detected with anti-MYC antibody; non-infected blood-fed midguts as control; conditions: one partner purified
T1 construct: PfPIMMS43 (PSOP25) of Plasmodium falciparum NF54, a 505-amino acid protein with an N-terminal signal peptide and a C-terminal GPI anchor; seen as a ~60 kDa band; GPI-anchored surface protein of ookinetes; also called ~60 kDa PfPIMMS43 protein; PSOP25; source: endogenous, lysate of P. falciparum NF54-infected An. coluzzii midguts, 18 h post blood feeding

[2] = target: T2, recombinant Thioredoxin-His-tagged PfPIMMS43 (amino acids 26-481), full-length (FL) recombinant PfPIMMS43 (Plasmodium falciparum, 3D7 entry (NF54 …, UniProt C6KT40)); assay: ELISA; dose response ELISA; MaxiSorp plates coated with 2 ug/mL recombinant PfPIMMS43 in PBS overnight, blocked with 4% skimmed milk; VHH from 1000 nM in serial 1:10 dilutions, 1 h at room temperature; detected with rabbit anti-VHH and donkey anti-rabbit HRP, OPD, 490 nm; conditions: both partners purified
T2 construct: PfPIMMS43 (PSOP25) of Plasmodium falciparum, a 505-amino acid protein; E. coli codon-optimised; the methods give 25-481; pET-32b vector; Results give 26-481, methods 25-481; also called TRX-His-PfPIMMS43; PSOP25; not shown: Thioredoxin (TRX), N-terminal, kept; His6, N-terminal, kept; His6, C-terminal, kept
T2 sequence (C6KT40 26-481): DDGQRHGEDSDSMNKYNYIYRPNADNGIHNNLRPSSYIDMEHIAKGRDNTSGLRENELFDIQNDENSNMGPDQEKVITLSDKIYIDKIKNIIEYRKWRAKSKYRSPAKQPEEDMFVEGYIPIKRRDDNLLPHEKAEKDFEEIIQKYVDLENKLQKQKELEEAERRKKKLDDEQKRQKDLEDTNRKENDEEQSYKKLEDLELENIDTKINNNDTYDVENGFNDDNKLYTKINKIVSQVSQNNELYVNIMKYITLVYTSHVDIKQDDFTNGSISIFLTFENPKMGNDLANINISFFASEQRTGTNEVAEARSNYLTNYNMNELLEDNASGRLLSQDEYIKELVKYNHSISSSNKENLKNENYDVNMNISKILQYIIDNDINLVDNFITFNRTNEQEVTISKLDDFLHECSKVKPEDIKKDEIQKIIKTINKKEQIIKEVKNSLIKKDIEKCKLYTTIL

T1 sequence (C6KT40 25-505): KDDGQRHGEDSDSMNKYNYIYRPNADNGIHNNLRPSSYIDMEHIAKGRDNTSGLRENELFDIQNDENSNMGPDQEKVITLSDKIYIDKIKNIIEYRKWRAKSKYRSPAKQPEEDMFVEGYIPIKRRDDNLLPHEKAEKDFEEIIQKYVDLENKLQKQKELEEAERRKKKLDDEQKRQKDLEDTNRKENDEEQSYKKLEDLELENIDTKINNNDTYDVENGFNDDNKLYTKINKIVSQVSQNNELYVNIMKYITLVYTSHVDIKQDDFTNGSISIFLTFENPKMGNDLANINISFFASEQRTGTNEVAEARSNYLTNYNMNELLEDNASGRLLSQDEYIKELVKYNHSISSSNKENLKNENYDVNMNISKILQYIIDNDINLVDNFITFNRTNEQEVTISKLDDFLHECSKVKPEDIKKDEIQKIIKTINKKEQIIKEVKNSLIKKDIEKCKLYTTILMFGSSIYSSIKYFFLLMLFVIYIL

Binder	binding result [1]	binding affinity (dose response ELISA) [2] [nM]
B1	binds	6
B2		> 50
B3		> 50
B4		> 50
B5		5
B6		8
B7		> 50
B8		3
B9		> 50

Source: PMC12041390, “Nanobody-mediated targeting of Plasmodium falciparum PfPIMMS43 can block malaria transmission in mosquitoes” (Communications Biology, 2025)
